# Test results from patent publication US12594285B2, “Compositions and methods for protecting against airborne pathogens and irritants” (APPLIED BIOLOGICAL LABORATORIES, INC., priority 2016, dated 2026).
# Experiments:
# [1] = tested on: Human Rhinovirus A16 (clinical strain: QCHRV.16); assay: Apical Rhinovirus replication by quantitative RT-PCR (Example 6); type: cell-based; settings: Example 6, 24 hours pi (D1)
# [2] = tested on: herpes simplex virus (topical application) and hepatitis C infection; settings: before versus after contact with the virus; cited from earlier work
# [3] = in some studies; cited from earlier work
molecule,measurement,setting,value
"soluble ICAM-1: soluble form of intercellular adhesion molecule 1, sole antiviral agent of formulations R3 and R4 (protein, UniProt P05362 28-480, looked up, extracellular domain, soluble form of intercellular adhesion molecule 1, sole antiviral agent of formulations R3 and R4) extracellular domain: QTSVSPSKVILPRGGSVLVTCSTSCDQPKLLGIETPLPKKELLLPGNNRKVYELSNVQEDSQPMCYSNCPDGQSTAKTFLTVYWTPERVELAPLPSWQPVGKNLTLRCQVEGGAPRANLTVVLLRGEKELKREPAVGEPAEVTTTVLVRRDHHGANFSCRTELDLRPQGLELFENTSAPYQLQTFVLPATPPQLVSPRVLEVDTQGTVVCSLDGLFPVSEAQVHLALGDQRLNPTVTYGNDSFSAKASVSVTAEDEGTQRLTCAVILGNQSQETLQTVTIYSFPAPNVILTKPEVSEGTEVTVKCEAHPRAKVTLNGVPAQPLGPRAQLLLKATPEDNGRSFSCSATLEVAGQLIHKNQTRELRVLYGPRLDERDCPGNWTWPENSQQTPMCQAWGNPLPELKCLKDGTFPLPIGESVTVTRDLEGTYLCRARSTQGEVTRKVTVNVLSPRYE",replication of HRV-A16 virus at D1,[1],inhibited replication
"lactoferrin: glycoprotein of approximately 703 amino acids and approximately 80 kD in exocrine secretions (protein, UniProt P02788 20-710, looked up) Lactotransferrin: GRRRSVQWCAVSQPEATKCFQWQRNMRKVRGPPVSCIKRDSPIQCIQAIAENRADAVTLDGGFIYEAGLAPYKLRPVAAEVYGTERQPRTHYYAVAVVKKGGSFQLNELQGLKSCHTGLRRTAGWNVPIGTLRPFLNWTGPPEPIEAAVARFFSASCVPGADKGQFPNLCRLCAGTGENKCAFSSQEPYFSYSGAFKCLRDGAGDVAFIRESTVFEDLSDEAERDEYELLCPDNTRKPVDKFKDCHLARVPSHAVVARSVNGKEDAIWNLLRQAQEKFGKDKSPKFQLFGSPSGQKDLLFKDSAIGFSRVPPRIDSGLYLGSGYFTAIQNLRKSEEEVAARRARVVWCAVGEQELRKCNQWSGLSEGSVTCSSASTTEDCIALVLKGEADAMSLDGGYVYTAGKCGLVPVLAENYKSQQSSDPDPNCVDRPVEGYLAVAVVRRSDTSLTWNSVKGKKSCHTAVDRTAGWNIPMGLLFNQTGSCKFDEYFSQSCAPGSDPRSNLCALCIGDEQGENKCVPNSNERYYGYTGAFRCLAENAGDVAFVKDVTVLQNTDGNNNEAWAKDLKLADFALLCLDGKRKPVTEARSCHLAMAPNHAVVSRMDKVERLKQVLLHQQAKFGRNGSDCPDKFCLFQSETKNLLFNDNTECLARLHGKTTYEKYLGPQYVAGITNLKKCSTSPLLEACEFLRK",protection against viral infection,[2],protective before contact with the virus but not after
"bovine lactoferrin: bovine form of the glycoprotein lactoferrin, 69% homology to human lactoferrin (protein, UniProt P24627 20-708, looked up) Lactotransferrin: APRKNVRWCTISQPEWFKCRRWQWRMKKLGAPSITCVRRAFALECIRAIAEKKADAVTLDGGMVFEAGRDPYKLRPVAAEIYGTKESPQTHYYAVAVVKKGSNFQLDQLQGRKSCHTGLGRSAGWIIPMGILRPYLSWTESLEPLQGAVAKFFSASCVPCIDRQAYPNLCQLCKGEGENQCACSSREPYFGYSGAFKCLQDGAGDVAFVKETTVFENLPEKADRDQYELLCLNNSRAPVDAFKECHLAQVPSHAVVARSVDGKEDLIWKLLSKAQEKFGKNKSRSFQLFGSPPGQRDLLFKDSALGFLRIPSKVDSALYLGSRYLTTLKNLRETAEEVKARYTRVVWCAVGPEEQKKCQQWSQQSGQNVTCATASTTDDCIVLVLKGEADALNLDGGYIYTAGKCGLVPVLAENRKSSKHSSLDCVLRPTEGYLAVAVVKKANEGLTWNSLKDKKSCHTAVDRTAGWNIPMGLIVNQTGSCAFDEFFSQSCAPGADPKSRLCALCAGDDQGLDKCVPNSKEKYYGYTGAFRCLAEDVGDVAFVKNDTVWENTNGESTADWAKNLNREDFRLLCLDGTRKPVTEAQSCHLAVAPNHAVVSRSDRAAHVKQVLLHQQALFGKNGKNCPDKFCLFKSETKNLLFNDNTECLAKLGGRPTYEEYLGTEYVTAIANLKKCSTSPLLEACAFLTR",concentration required for an antimicrobial effect relative to human lactoferrin,[3],1/10
